Results published in PMC5665922, “Modulation of the Vault Protein-Protein Interaction for Tuning of Molecular Release” (Scientific Reports, 2017).
Numbering of substitutions follows the chain as printed. Values belong to the binder of their own block, whether it stands above or below them.

What was measured:
[1] = target: T1, Histidine-tagged INT-interacting MVP domains (His-iMVP), major vault protein domains 3 to 5; assay: SPR; Biacore 3000, His-iMVP immobilised on CM5 (1010 RU), His-INT/DSA/3H injected at 0.12, 0.25 or 0.5 μM, 25 °C, pH 6.0; apparent constants; details: both partners purified
T1 construct: major vault protein (MVP), domains 3, 4 and 5 including the gap between domains 2 and 3, residues 102-276, PCR-amplified from the CP-MVP gene; numbers count on: PDB 2QZV; Cloned NdeI/BamHI in pET-28a; also called MVP domains 3 to 5; source: E. coli BL21(DE3), purified (HisTrap HP; SEC for SPR); not shown: His6, N-terminal, kept

[2] = target: T1, Histidine-tagged INT-interacting MVP …; assay: SPR; Biacore 3000, His-iMVP amine-coupled to CM5 (410, 1860 or 1240 RU), His-INT or variant injected, 25 °C, 50 mM PBS, 150 mM NaCl, pH 7.4; 1-to-1 Langmuir fit; apparent constants; details: both partners purified
[3] = target: the molecule itself; assay: SEC; His-INT alone at 0.05, 0.01 and 0.005 mM on Superdex 75 10/300 GL; dimer (D) and monomer (M) peaks; dimer to monomers

Kd [1]: 24 nM
koff [1]: 0.000258 s⁻¹
kon [1]: 10800 M⁻¹ s⁻¹
Kd [2]: 90 nM
koff [2]: 0.00134 s⁻¹
kon [2]: 14900 M⁻¹ s⁻¹
B1: His-INT/DSA/3H (His-INT with histidines substituted at the interaction surface) (domain or fragment)
chain: CIQHWQDAVPWTELLSLQTEDGFWKLTPELGLILNLNTNGLHSFLKQKGIQSLGVKGRECLLDLIATMLVLQFIRTRLEKEGIVFKSLMKMDDASISRNIPWAFEAIKQASEWVRRTEGQYPSICPRLELGNHWDHHTKQLLGLQPISTVSPLHRVLHYSQG

B2: Histidine-tagged vault-interacting domain of vault poly(ADP-ribose)-polymerase (His-INT) (domain or fragment, UniProt Q9UKK3 1563-1724, looked up)
chain: B1 chain with H133D, H136S, H137A
notes: vault poly(ADP-ribose)-polymerase (VPARP), C-terminal INT domain, residues 1563-1724 of GenBank AF158255; Cloned NdeI/XhoI in pET-28a; Monomer and dimer in equilibrium; also called wild-type INT; full-length His-INT; source: E. coli BL21(DE3), purified (HisTrap HP, SEC; M fraction used); not shown: His6, N-terminal, kept
stoichiometry N [3]: 2
